# Measured values published in the supplement of paper PMC10065799, “High-throughput profiling of sequence recognition by tyrosine kinases and SH2 domains using bacterial peptide display” (eLife, 2023).
# Key:
# FGFR3 = FGFR3 (UniProt P22607); experiment: phosphorylation enrichment, bacterial display (enrichment ratio); higher = better substrate or ligand; peptides without Tyr show the background
# Fyn = Fyn (UniProt P06241); experiment: as above
# FGFR1 = FGFR1 (UniProt P11362); experiment: as above
# EPHB1 = EPHB1 (UniProt P54762); experiment: as above
# Chain of EPHB1 (P54762 whole entry, looked up): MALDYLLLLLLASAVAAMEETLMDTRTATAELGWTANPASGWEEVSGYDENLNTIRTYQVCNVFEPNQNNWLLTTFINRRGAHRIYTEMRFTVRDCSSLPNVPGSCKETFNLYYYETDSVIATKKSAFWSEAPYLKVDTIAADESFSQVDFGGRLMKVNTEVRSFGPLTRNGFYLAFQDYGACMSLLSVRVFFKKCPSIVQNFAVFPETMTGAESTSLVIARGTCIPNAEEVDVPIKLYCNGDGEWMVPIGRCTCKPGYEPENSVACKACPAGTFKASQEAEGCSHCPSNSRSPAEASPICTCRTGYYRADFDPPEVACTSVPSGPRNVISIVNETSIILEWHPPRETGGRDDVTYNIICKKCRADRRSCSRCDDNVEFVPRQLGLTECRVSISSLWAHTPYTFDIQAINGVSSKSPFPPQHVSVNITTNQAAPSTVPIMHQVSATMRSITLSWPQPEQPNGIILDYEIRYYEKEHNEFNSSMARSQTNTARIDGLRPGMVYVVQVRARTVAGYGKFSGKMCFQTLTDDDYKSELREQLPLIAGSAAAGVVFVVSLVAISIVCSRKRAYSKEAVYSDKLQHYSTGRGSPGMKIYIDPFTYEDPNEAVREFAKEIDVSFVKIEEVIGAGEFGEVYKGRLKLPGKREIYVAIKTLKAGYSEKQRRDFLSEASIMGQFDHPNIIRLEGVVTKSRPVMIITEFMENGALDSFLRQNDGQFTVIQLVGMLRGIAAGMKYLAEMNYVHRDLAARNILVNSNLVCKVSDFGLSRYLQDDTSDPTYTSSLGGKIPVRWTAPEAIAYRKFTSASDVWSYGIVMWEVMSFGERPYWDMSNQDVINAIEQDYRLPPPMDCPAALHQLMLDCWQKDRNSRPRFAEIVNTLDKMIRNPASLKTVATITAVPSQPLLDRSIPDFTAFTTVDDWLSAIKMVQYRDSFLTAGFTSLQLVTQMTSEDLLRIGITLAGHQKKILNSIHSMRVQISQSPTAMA
# EPHB2 = EPHB2 (UniProt P29323); experiment: as above
# Hck = Hck (UniProt P08631); experiment: as above
# Chain of Hck (P08631 whole entry, looked up): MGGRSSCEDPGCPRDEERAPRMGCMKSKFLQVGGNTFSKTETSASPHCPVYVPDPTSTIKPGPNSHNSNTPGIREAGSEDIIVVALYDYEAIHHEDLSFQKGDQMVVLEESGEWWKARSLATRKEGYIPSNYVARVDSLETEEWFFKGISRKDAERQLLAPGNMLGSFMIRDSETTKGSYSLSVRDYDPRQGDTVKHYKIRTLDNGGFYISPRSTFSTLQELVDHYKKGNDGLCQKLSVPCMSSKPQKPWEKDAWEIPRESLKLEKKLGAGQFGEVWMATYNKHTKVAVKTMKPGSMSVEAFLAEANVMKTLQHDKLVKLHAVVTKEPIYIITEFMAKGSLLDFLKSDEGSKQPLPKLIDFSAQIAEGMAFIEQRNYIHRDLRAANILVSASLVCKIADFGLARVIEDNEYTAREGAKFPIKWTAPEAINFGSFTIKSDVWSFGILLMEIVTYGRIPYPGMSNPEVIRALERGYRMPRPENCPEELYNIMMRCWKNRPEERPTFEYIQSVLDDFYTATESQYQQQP
# Jak2 = Jak2 (UniProt O60674); experiment: as above
# Chain of Jak2 (O60674 whole entry, looked up): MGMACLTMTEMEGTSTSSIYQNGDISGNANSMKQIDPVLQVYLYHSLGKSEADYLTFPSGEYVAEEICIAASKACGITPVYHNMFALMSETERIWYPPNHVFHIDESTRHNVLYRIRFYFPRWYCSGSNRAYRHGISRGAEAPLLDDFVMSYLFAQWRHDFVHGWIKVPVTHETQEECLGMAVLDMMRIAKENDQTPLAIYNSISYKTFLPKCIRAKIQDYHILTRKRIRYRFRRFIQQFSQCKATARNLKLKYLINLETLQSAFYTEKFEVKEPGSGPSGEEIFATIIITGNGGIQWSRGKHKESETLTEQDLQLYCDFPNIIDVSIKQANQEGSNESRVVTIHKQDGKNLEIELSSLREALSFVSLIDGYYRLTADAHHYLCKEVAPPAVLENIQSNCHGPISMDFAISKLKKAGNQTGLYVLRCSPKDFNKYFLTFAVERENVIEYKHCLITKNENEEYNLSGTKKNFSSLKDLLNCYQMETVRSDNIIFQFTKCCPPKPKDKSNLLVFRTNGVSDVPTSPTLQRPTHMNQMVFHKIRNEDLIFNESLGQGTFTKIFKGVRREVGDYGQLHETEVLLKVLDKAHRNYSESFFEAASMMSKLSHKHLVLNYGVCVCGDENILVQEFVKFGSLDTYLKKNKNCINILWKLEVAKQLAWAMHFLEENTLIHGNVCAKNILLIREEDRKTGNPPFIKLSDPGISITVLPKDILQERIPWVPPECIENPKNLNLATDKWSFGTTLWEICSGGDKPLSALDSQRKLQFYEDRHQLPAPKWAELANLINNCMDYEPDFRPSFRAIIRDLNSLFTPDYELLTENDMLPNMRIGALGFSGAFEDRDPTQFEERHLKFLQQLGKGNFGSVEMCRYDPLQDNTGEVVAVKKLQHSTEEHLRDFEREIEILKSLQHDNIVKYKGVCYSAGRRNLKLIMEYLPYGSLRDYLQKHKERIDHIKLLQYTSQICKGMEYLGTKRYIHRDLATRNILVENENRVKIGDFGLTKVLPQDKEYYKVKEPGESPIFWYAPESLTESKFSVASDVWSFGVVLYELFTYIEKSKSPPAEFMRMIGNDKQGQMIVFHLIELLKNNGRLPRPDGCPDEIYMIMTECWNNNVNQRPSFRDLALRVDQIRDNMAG
# c-Abl (mouse) = experiment: as above
# AncSZ = experiment: as above
# c-Src = experiment: as above
# Fes = Fes (UniProt P07332); experiment: as above
# Chain of Fes (P07332 whole entry, looked up): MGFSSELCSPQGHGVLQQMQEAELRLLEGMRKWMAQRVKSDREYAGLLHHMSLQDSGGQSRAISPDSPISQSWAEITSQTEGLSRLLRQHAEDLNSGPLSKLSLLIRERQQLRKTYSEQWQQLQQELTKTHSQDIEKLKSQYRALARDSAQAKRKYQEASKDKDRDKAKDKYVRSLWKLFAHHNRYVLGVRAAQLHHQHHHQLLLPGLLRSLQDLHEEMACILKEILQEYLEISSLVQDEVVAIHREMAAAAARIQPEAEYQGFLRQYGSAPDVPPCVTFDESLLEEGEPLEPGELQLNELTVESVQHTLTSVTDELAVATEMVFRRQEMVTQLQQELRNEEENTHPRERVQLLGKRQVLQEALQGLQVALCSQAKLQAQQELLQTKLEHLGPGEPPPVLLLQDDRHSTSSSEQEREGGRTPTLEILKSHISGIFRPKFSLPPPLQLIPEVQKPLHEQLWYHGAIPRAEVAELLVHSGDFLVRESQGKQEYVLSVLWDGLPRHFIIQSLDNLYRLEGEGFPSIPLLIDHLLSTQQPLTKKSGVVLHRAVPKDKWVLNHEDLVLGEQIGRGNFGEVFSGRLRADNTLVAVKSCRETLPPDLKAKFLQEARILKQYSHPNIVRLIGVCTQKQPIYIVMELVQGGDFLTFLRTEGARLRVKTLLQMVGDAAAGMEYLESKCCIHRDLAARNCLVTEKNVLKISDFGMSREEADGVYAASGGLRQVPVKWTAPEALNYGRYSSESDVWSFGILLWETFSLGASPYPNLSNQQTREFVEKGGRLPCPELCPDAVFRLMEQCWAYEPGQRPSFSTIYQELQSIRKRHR
# Fer (mouse) = experiment: as above
# MERTK = MERTK (UniProt Q12866); experiment: as above
# Chain of MERTK (Q12866 whole entry, looked up): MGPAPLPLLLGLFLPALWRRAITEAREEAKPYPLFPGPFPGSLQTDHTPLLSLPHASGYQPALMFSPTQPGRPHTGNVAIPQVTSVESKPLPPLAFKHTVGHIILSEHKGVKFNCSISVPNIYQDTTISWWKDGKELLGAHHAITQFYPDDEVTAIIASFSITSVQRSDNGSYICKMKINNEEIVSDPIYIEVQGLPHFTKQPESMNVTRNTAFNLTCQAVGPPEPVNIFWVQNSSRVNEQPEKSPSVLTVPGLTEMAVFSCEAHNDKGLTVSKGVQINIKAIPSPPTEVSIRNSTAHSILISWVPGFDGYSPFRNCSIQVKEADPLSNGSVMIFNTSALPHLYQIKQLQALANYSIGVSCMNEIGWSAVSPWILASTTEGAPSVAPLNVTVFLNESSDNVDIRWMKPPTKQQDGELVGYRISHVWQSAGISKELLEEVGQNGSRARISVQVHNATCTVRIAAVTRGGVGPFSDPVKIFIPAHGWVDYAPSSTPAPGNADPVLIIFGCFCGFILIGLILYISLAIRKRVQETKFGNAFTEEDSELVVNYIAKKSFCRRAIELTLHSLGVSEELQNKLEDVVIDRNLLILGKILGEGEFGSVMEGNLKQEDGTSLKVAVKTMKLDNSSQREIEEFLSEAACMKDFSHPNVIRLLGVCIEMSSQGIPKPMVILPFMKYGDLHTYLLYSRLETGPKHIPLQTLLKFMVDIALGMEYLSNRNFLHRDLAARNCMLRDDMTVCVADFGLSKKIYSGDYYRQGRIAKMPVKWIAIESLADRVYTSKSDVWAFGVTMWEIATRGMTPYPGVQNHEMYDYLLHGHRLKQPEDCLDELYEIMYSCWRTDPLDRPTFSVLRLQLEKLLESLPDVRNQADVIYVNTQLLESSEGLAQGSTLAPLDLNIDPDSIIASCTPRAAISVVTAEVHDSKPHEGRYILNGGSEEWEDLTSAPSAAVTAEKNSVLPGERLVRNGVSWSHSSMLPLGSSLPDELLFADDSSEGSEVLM
# c-Src SH2 = experiment: SH2 binding enrichment of the phosphorylated peptide, bacterial display (enrichment ratio); higher = better substrate or ligand; peptides without Tyr show the background
# SHP2-C SH2 = experiment: as above
# Grb2 SH2 = Grb2 SH2 (UniProt P62993); experiment: as above
# 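For SH2 binding enrichment of the phosphorylated peptide, bacterial display in this document: peptide library displayed on the E. coli surface as eCPX fusions, selected cells deep-sequenced, score is each peptide's frequency after selection divided by its frequency in the input.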
# 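For phosphorylation enrichment, bacterial display in this document: 11-residue human phosphosite peptides and single-mutation variants displayed on the E. coli surface, counted by deep sequencing, each peptide's frequency after selection divided by its frequency in the unselected input library; frequency after pTyr selection over input frequency; kinase dosed for 20-30% of maximal phosphorylation in three min.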
# Chain of Fyn (P06241 whole entry, looked up): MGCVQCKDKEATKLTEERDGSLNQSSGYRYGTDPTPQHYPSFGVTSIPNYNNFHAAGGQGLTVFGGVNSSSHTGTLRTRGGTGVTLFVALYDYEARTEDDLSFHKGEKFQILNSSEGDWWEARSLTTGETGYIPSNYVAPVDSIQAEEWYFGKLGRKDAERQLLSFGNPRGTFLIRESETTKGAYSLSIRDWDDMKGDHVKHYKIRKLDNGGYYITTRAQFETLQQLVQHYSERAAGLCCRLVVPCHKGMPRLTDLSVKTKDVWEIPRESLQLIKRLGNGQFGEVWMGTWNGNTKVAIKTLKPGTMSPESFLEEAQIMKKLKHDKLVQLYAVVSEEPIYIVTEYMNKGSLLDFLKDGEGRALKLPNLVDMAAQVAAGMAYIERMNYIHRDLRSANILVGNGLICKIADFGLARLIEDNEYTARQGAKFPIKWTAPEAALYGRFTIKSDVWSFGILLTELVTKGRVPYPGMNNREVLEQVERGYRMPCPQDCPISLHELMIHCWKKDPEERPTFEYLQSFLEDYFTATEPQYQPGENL
Sequence,SH2 binding enrichment (c-Src SH2),SH2 binding enrichment (SHP2-C SH2),SH2 binding enrichment (Grb2 SH2),phosphorylation enrichment (FGFR3),phosphorylation enrichment (Fyn),phosphorylation enrichment (FGFR1),phosphorylation enrichment (EPHB1),phosphorylation enrichment (EPHB2),phosphorylation enrichment (Hck),phosphorylation enrichment (Jak2),phosphorylation enrichment (c-Abl (mouse)),phosphorylation enrichment (AncSZ),phosphorylation enrichment (c-Src),phosphorylation enrichment (Fes),phosphorylation enrichment (Fer (mouse)),phosphorylation enrichment (MERTK)
AFLQTYSHEVS [PCDHGA5_Y753],0.57,0.873,1.01,0.683,0.602,0.442,0.584,0.64,0.551,0.957,0.518,0.845,0.812,0.971,0.531,0.585
AGADGYDYLAP [FOXL2_Y186_G187D],4.34,0.478,0.89,0.783,0.534,0.611,0.585,0.587,0.903,0.997,0.655,3.5,0.388,0.99,0.62,0.647
AKKIKYFEGVS [PRKDC_Y682],0.479,0.83,0.79,0.332,0.321,0.295,0.324,0.44,0.447,0.427,0.328,0.429,0.387,0.547,0.42,0.383
AKRKNYAPVAM [CFAP47_Y557],1.05,1.26,1.11,0.371,0.393,0.654,0.648,0.425,0.392,0.341,0.57,0.562,0.432,0.521,0.302,0.468
ALCHYYKLNII [ETV6_Y402_R399C],0.855,1.34,0.895,5.13,0.798,5.97,0.97,0.738,1.09,3.3,2,1.59,1.54,1.62,0.615,2.26
APSGNYVACGG [GNB1_Y111],1.42,0.804,0.956,1.07,0.363,0.478,0.822,0.691,0.429,0.571,0.584,1.13,0.301,0.788,0.513,0.437

# Second part, led by results:
SH2 binding enrichment (c-Src SH2),SH2 binding enrichment (SHP2-C SH2),SH2 binding enrichment (Grb2 SH2),Sequence,phosphorylation enrichment (FGFR3),phosphorylation enrichment (Fyn),phosphorylation enrichment (FGFR1),phosphorylation enrichment (EPHB1),phosphorylation enrichment (EPHB2),phosphorylation enrichment (Hck),phosphorylation enrichment (Jak2),phosphorylation enrichment (c-Abl (mouse)),phosphorylation enrichment (AncSZ),phosphorylation enrichment (c-Src),phosphorylation enrichment (Fes),phosphorylation enrichment (Fer (mouse)),phosphorylation enrichment (MERTK)
0.808,0.916,1.12,AEPNIYQEKLS [USP54_Y1233_D1231N],0.505,0.727,0.442,0.401,0.462,0.778,0.948,0.802,0.763,0.679,0.748,0.34,0.339
1.06,1.01,1.46,AKKVFYMIETR [SHH_Y253_V254M],0.881,0.439,0.448,0.606,0.622,0.444,1.02,0.673,1.15,0.472,1.24,0.561,0.386
0.775,1.03,1.2,AKKVFYVIETR [SHH_Y253],0.765,0.465,0.542,0.569,0.582,0.422,1.01,0.627,1.12,0.412,1.26,0.401,0.361
